Measured values from the supplement of paper PMC9112550, “Optimization of the antimicrobial peptide Bac7 by deep mutational scanning” (BMC Biology, 2022).

Tested on: Escherichia coli TOP10
Test: shrunken log2 fold change of peptide-encoding DNA abundance (4.5 h post-induction vs induction); higher = less antimicrobial activity (less host growth inhibition)
Settings: time post-induction: 4.5 h; library: site-saturation at positions 5, 18, 19, 20
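Note: peptides expressed intracellularly from a pBAD plasmid library in pooled LB shake-flask culture, induced with 0.3% L-arabinose, DNA abundance read by NGS, three biological replicates, DESeq2 with apeglm shrinkage.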

Row | Sequence | shrunken log2 fold change
1 | RRIRERPPRLPRPRPRPDMKPRP | 0.0475
2 | RRIRERPPRLPRPRPRPDMMPRP | 0.0556
3 | RRIRERPPRLPRPRPRPDMSPRP | -0.064
4 | RRIRERPPRLPRPRPRPDNAPRP | -0.245
5 | RRIRERPPRLPRPRPRPDNSPRP | -0.981
6 | RRIRERPPRLPRPRPRPDPDPRP | -0.0294
7 | RRIRERPPRLPRPRPRPDQVPRP | -0.148
8 | RRIRERPPRLPRPRPRPDREPRP | -0.0729
9 | RRIRERPPRLPRPRPRPDRLPRP | -0.147
10 | RRIRERPPRLPRPRPRPDSPPRP | -0.184
11 | RRIRERPPRLPRPRPRPDTIPRP | -0.06
12 | RRIRERPPRLPRPRPRPDTPPRP | -0.562
13 | RRIRERPPRLPRPRPRPDVWPRP | 0.0561
14 | RRIRERPPRLPRPRPRPDYDPRP | -0.021
15 | RRIRERPPRLPRPRPRPDYTPRP | -1.01
16 | RRIRERPPRLPRPRPRPDYVPRP | -0.00136
17 | RRIRERPPRLPRPRPRPDYWPRP | -0.276
18 | RRIRERPPRLPRPRPRPEARPRP | 0.164
19 | RRIRERPPRLPRPRPRPECTPRP | 0.187
20 | RRIRERPPRLPRPRPRPEECPRP | -0.000921
21 | RRIRERPPRLPRPRPRPEEMPRP | 0.0169
22 | RRIRERPPRLPRPRPRPEFCPRP | 0.112
23 | RRIRERPPRLPRPRPRPEFHPRP | -0.207
24 | RRIRERPPRLPRPRPRPEGLPRP | -0.00749
25 | RRIRERPPRLPRPRPRPEHTPRP | -0.154

Row | Sequence | shrunken log2 fold change
26 | RRIRERPPRLPRPRPRPEKNPRP | -0.126
27 | RRIRERPPRLPRPRPRPEKPPRP | 3.84
28 | RRIRERPPRLPRPRPRPELYPRP | -0.0287
29 | RRIRERPPRLPRPRPRPEMEPRP | -0.0231
30 | RRIRERPPRLPRPRPRPEPMPRP | -0.0016
31 | RRIRERPPRLPRPRPRPEQDPRP | -0.0751
32 | RRIRERPPRLPRPRPRPESDPRP | -0.0699
33 | RRIRERPPRLPRPRPRPETWPRP | -0.0594
34 | RRIRERPPRLPRPRPRPEWFPRP | 0.0631
35 | RRIRERPPRLPRPRPRPEYHPRP | -0.242
36 | RRIRERPPRLPRPRPRPEYYPRP | -0.00813
37 | RRIRERPPRLPRPRPRPFAKPRP | -0.386
38 | RRIRERPPRLPRPRPRPFCKPRP | 0.0112
39 | RRIRERPPRLPRPRPRPFEPPRP | -0.195
40 | RRIRERPPRLPRPRPRPFFDPRP | 0.0568
41 | RRIRERPPRLPRPRPRPFFGPRP | -0.217
42 | RRIRERPPRLPRPRPRPFGHPRP | -0.224
43 | RRIRERPPRLPRPRPRPFHSPRP | -0.256
44 | RRIRERPPRLPRPRPRPFKDPRP | -0.0062
45 | RRIRERPPRLPRPRPRPFKFPRP | -0.0774
46 | RRIRERPPRLPRPRPRPFKIPRP | -0.0307
47 | RRIRERPPRLPRPRPRPFKLPRP | -0.42
48 | RRIRERPPRLPRPRPRPFLWPRP | 0.155
49 | RRIRERPPRLPRPRPRPFNGPRP | -0.145
50 | RRIRERPPRLPRPRPRPFPPPRP | -0.38

Row | Sequence | shrunken log2 fold change
51 | RRIRERPPRLPRPRPRPFRWPRP | 0.0329
52 | RRIRERPPRLPRPRPRPFSTPRP | -0.0931
53 | RRIRERPPRLPRPRPRPFWCPRP | -0.014
54 | RRIRERPPRLPRPRPRPFWTPRP | -0.24
55 | RRIRERPPRLPRPRPRPFYNPRP | -0.306
56 | RRIRERPPRLPRPRPRPFYQPRP | -0.0388
57 | RRIRERPPRLPRPRPRPGAQPRP | -0.23
58 | RRIRERPPRLPRPRPRPGDDPRP | -0.152
59 | RRIRERPPRLPRPRPRPGEGPRP | 0.028
60 | RRIRERPPRLPRPRPRPGEIPRP | 0.0895
61 | RRIRERPPRLPRPRPRPGELPRP | -0.26
62 | RRIRERPPRLPRPRPRPGFHPRP | -0.277
63 | RRIRERPPRLPRPRPRPGFKPRP | -0.324
64 | RRIRERPPRLPRPRPRPGFLPRP | -0.0604
65 | RRIRERPPRLPRPRPRPGFTPRP | 0.00165
66 | RRIRERPPRLPRPRPRPGIEPRP | 0.00615
67 | RRIRERPPRLPRPRPRPGKNPRP | -0.212
68 | RRIRERPPRLPRPRPRPGLLPRP | -0.0986
69 | RRIRERPPRLPRPRPRPGLTPRP | -0.174
70 | RRIRERPPRLPRPRPRPGMTPRP | -0.324
71 | RRIRERPPRLPRPRPRPGNDPRP | -0.0081
72 | RRIRERPPRLPRPRPRPGNNPRP | -0.426
73 | RRIRERPPRLPRPRPRPGQAPRP | -0.00166
74 | RRIRERPPRLPRPRPRPGQQPRP | -0.0809
75 | RRIRERPPRLPRPRPRPGQVPRP | 0.126

Row | Sequence | shrunken log2 fold change
76 | RRIRERPPRLPRPRPRPGRAPRP | 0.367
77 | RRIRERPPRLPRPRPRPGVWPRP | 0.44
78 | RRIRERPPRLPRPRPRPGWGPRP | 0.521
79 | RRIRERPPRLPRPRPRPGYSPRP | -0.00468
80 | RRIRERPPRLPRPRPRPHAYPRP | -0.352
81 | RRIRERPPRLPRPRPRPHDIPRP | -0.0102
82 | RRIRERPPRLPRPRPRPHDVPRP | 0.00785
83 | RRIRERPPRLPRPRPRPHEIPRP | -0.0168
84 | RRIRERPPRLPRPRPRPHFEPRP | -0.211
85 | RRIRERPPRLPRPRPRPHGEPRP | -0.0812
86 | RRIRERPPRLPRPRPRPHKRPRP | 3.62
87 | RRIRERPPRLPRPRPRPHLHPRP | -0.485
88 | RRIRERPPRLPRPRPRPHLNPRP | -0.434
89 | RRIRERPPRLPRPRPRPHNSPRP | -0.156
90 | RRIRERPPRLPRPRPRPHNVPRP | -0.42
91 | RRIRERPPRLPRPRPRPHPEPRP | -0.073
92 | RRIRERPPRLPRPRPRPHQRPRP | 0.0138
93 | RRIRERPPRLPRPRPRPHREPRP | -0.0302
94 | RRIRERPPRLPRPRPRPHSSPRP | -0.0464
95 | RRIRERPPRLPRPRPRPHTGPRP | -1.1
96 | RRIRERPPRLPRPRPRPHTTPRP | -0.205
97 | RRIRERPPRLPRPRPRPHVPPRP | -0.0791
98 | RRIRERPPRLPRPRPRPHYVPRP | -0.0222
99 | RRIRERPPRLPRPRPRPIADPRP | 0.13
100 | RRIRERPPRLPRPRPRPIAIPRP | -0.00127

Row | Sequence | shrunken log2 fold change
101 | RRIRERPPRLPRPRPRPIAQPRP | -0.0491
102 | RRIRERPPRLPRPRPRPICQPRP | 0.00158
103 | RRIRERPPRLPRPRPRPIDIPRP | -0.01
104 | RRIRERPPRLPRPRPRPIDNPRP | -0.108
105 | RRIRERPPRLPRPRPRPIEEPRP | -0.0104
106 | RRIRERPPRLPRPRPRPIFYPRP | -0.385
107 | RRIRERPPRLPRPRPRPIGCPRP | -0.00631
108 | RRIRERPPRLPRPRPRPIGFPRP | -0.134
109 | RRIRERPPRLPRPRPRPIHFPRP | -0.00865
110 | RRIRERPPRLPRPRPRPIHRPRP | 0.0155
111 | RRIRERPPRLPRPRPRPIHTPRP | 0.0013
112 | RRIRERPPRLPRPRPRPIIPPRP | -0.835
113 | RRIRERPPRLPRPRPRPILHPRP | -0.0255
114 | RRIRERPPRLPRPRPRPILNPRP | 2.73
115 | RRIRERPPRLPRPRPRPILSPRP | -0.316
116 | RRIRERPPRLPRPRPRPIMDPRP | -0.247
117 | RRIRERPPRLPRPRPRPIMGPRP | -0.21
118 | RRIRERPPRLPRPRPRPIMPPRP | -0.356
119 | RRIRERPPRLPRPRPRPIMWPRP | -0.268
120 | RRIRERPPRLPRPRPRPINHPRP | 0.198
121 | RRIRERPPRLPRPRPRPIRCPRP | 0.0648
122 | RRIRERPPRLPRPRPRPIRIPRP | -0.00822
123 | RRIRERPPRLPRPRPRPITWPRP | 0.0224
124 | RRIRERPPRLPRPRPRPIVQPRP | -0.311
125 | RRIRERPPRLPRPRPRPIWAPRP | 0.639

Row | Sequence | shrunken log2 fold change
126 | RRIRERPPRLPRPRPRPKAFPRP | 0.0124
127 | RRIRERPPRLPRPRPRPKCEPRP | 0.0279
128 | RRIRERPPRLPRPRPRPKDDPRP | 0.104
129 | RRIRERPPRLPRPRPRPKDFPRP | -0.00088
130 | RRIRERPPRLPRPRPRPKEAPRP | 0.324
131 | RRIRERPPRLPRPRPRPKEMPRP | -0.192
132 | RRIRERPPRLPRPRPRPKENPRP | -0.135
133 | RRIRERPPRLPRPRPRPKGHPRP | 0.092
134 | RRIRERPPRLPRPRPRPKGKPRP | -0.0014
135 | RRIRERPPRLPRPRPRPKKQPRP | -0.0932
136 | RRIRERPPRLPRPRPRPKKSPRP | -0.182
137 | RRIRERPPRLPRPRPRPKMQPRP | -0.0537
138 | RRIRERPPRLPRPRPRPKMRPRP | 0.962
139 | RRIRERPPRLPRPRPRPKMSPRP | 0.148
140 | RRIRERPPRLPRPRPRPKQIPRP | 0.169
141 | RRIRERPPRLPRPRPRPKRPPRP | 0.194
142 | RRIRERPPRLPRPRPRPKVNPRP | -0.389
143 | RRIRERPPRLPRPRPRPKVQPRP | 0.105
144 | RRIRERPPRLPRPRPRPLAAPRP | -0.0502
145 | RRIRERPPRLPRPRPRPLCDPRP | 1.81
146 | RRIRERPPRLPRPRPRPLCHPRP | -0.0201
147 | RRIRERPPRLPRPRPRPLEMPRP | -0.216
148 | RRIRERPPRLPRPRPRPLESPRP | -0.0735
149 | RRIRERPPRLPRPRPRPLEWPRP | -0.0018
150 | RRIRERPPRLPRPRPRPLFDPRP | -0.581
